Measured values reported in article PMC12840758, “The Cold Shock Protein CspB from Mycobacterium tuberculosis Binds to MTS0997 sRNA and MTS1338 sRNA as a Dimer” (International Journal of Molecular Sciences, 2026).

Target: the molecule itself
Assay: SEC; Superdex 75 Increase 10/300 GL, 200 mM NaCl, 50 mM Tris-HCl pH 8.0; 1 mg/mL, 100 uL injected, 0.5 mL/min; calibrated with monomeric globular proteins of 45.8, 24.8, 15.4 and 7.3 kDa

B1: Cold shock protein CspB from Mycobacterium tuberculosis (natural protein)
chain: MPTGKVKWYDPDKGFGFLSQEGGEDVYVRSSALPTGVEALKAGQRVEFGIASGRRGPQALSLRLIEPPPSLSRPRREPAAEHKHSPDELHGMVEDMITLLESTVQPELRKGRYPDRKTARRVAEVVRAVAREFES
notes: Removal of the C-terminal His6 tag is not mentioned; also called MtbCspB; M. tuberculosis CspB
  stoichiometry N: 2
